Measurements taken from US20240301076A1 (CEPHALON, published 2024).
Where a chain is given by its changes, count along the chain named. Names and notes keep the numbering of the source.

T1: human CXCR2 (human, UniProt P25025 1-360)
T1 construct: also called CXC chemokine receptor 2; hCXCR2
T1 sequence: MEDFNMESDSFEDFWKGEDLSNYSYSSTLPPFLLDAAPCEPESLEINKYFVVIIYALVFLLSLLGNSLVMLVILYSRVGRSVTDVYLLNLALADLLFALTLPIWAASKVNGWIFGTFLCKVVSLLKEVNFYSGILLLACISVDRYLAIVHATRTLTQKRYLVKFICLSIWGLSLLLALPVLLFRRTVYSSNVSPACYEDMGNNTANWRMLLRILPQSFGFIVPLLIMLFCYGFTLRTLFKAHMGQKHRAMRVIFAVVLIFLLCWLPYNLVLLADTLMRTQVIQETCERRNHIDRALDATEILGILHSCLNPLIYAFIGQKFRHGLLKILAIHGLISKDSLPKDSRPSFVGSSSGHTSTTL

B1: BKO-4A8 combinatorial variant 1b (antibody, human IgG4 S228P, lambda, V domains shown)
VH: EVQLLESGGGLVQPGGSLRLSCAASGFTFSSSTQSWVRQAPGKGLEWVSAISGRGRSTYYADSVKGRFTISRDNSRNTLYLQMNSLRAEDTAVYYCAIQMGYWGQGILVTVSS
VL: QSALTQPPSASGSPGQSVTISCIGTSSDVGGYNYVSWYQQHPDKAPKLMIYEVSKRPSGVPDRFSGSKSGNTASLTVSGLQAEDEADYYCSSYAGSNNFGVFGGGTKLTVLG
notes: IgG4 S228P, lambda
B2: BKO-4A8 combinatorial variant 1c (antibody, human IgG4 S228P, lambda, V domains shown)
VH: B1 VH
VL: B1 VL with D43G
notes: IgG4 S228P, lambda
B3: BKO-4A8 combinatorial variant 2b (antibody, human IgG4 S228P, lambda, V domains shown)
VH: B1 VH with A40P
VL: B1 VL
notes: IgG4 S228P, lambda
B4: BKO-4A8 combinatorial variant 2c (antibody, human IgG4 S228P, lambda, V domains shown)
VH: B1 VH with A40P
VL: B1 VL with D43G
notes: IgG4 S228P, lambda
B5: BKO-4A8 combinatorial variant 3b (antibody, human IgG4 S228P, lambda, V domains shown)
VH: B1 VH with A40P, R76K
VL: B1 VL
notes: IgG4 S228P, lambda
B6: BKO-4A8 variant VH G52aD (antibody, human IgG4 S228P, lambda, V domains shown)
VH: B1 VH with Q34M, G53D, S57N
VL: B1 VL with S54N, S96N
notes: IgG4 S228P, lambda; parental light chain; also called 4A8 VH G52aD
B7: BKO-4A8 variant VH G54D (antibody, human IgG4 S228P, lambda, V domains shown)
VH: B1 VH with Q34M, G55D, S57N
VL: B1 VL with S54N, S96N
notes: IgG4 S228P, lambda; parental light chain; also called 4A8 VH G54D
B8: BKO-4A8 variant VH G101D (antibody, human IgG4 S228P, lambda, V domains shown)
VH: B1 VH with Q34M, S57N, G101D
VL: B1 VL with S54N, S96N
notes: IgG4 S228P, lambda; parental light chain; also called 4A8 VH G101D
B9: BKO-4A8 variant VH I51H (antibody, human IgG4 S228P, lambda, V domains shown)
VH: B1 VH with Q34M, I51H, S57N
VL: B1 VL with S54N, S96N
notes: IgG4 S228P, lambda; parental light chain; also called 4A8 VH I51H
B10: BKO-4A8 variant VH M34D (antibody, human IgG4 S228P, lambda, V domains shown)
VH: B1 VH with Q34D, S57N
VL: B1 VL with S54N, S96N
notes: IgG4 S228P, lambda; parental light chain; also called 4A8 VH M34D
B11: BKO-4A8 variant VH M34W (antibody, human IgG4 S228P, lambda, V domains shown)
VH: B1 VH with Q34W, S57N
VL: B1 VL with S54N, S96N
notes: IgG4 S228P, lambda; parental light chain; also called 4A8 VH M34W
B12: BKO-4A8 variant VH R53Q (antibody, human IgG4 S228P, lambda, V domains shown)
VH: B1 VH with Q34M, R54Q, S57N
VL: B1 VL with S54N, S96N
notes: IgG4 S228P, lambda; parental light chain; also called 4A8 VH R53Q
B13: BKO-4A8 variant VH R53S (antibody, human IgG4 S228P, lambda, V domains shown)
VH: B1 VH with Q34M, R54S, S57N
VL: B1 VL with S54N, S96N
notes: IgG4 S228P, lambda; parental light chain; also called 4A8 VH R53S
B14: BKO-4A8 variant VH S32H (antibody, human IgG4 S228P, lambda, V domains shown)
VH: B1 VH with S32H, Q34M, S57N
VL: B1 VL with S54N, S96N
notes: IgG4 S228P, lambda; parental light chain; also called 4A8 VH S32H
B15: BKO-4A8 variant VH S32L (antibody, human IgG4 S228P, lambda, V domains shown)
VH: B1 VH with S32L, Q34M, S57N
VL: B1 VL with S54N, S96N
notes: IgG4 S228P, lambda; parental light chain; also called 4A8 VH S32L
B16: BKO-4A8 variant VH S32Q (antibody, human IgG4 S228P, lambda, V domains shown)
VH: B1 VH with S32Q, Q34M, S57N
VL: B1 VL with S54N, S96N
notes: IgG4 S228P, lambda; parental light chain; also called 4A8 VH S32Q
B17: BKO-4A8 variant VH S32W (antibody, human IgG4 S228P, lambda, V domains shown)
VH: B1 VH with S32W, Q34M, S57N
VL: B1 VL with S54N, S96N
notes: IgG4 S228P, lambda; parental light chain; also called 4A8 VH S32W
B18: BKO-4A8 variant VH S32Y (antibody, human IgG4 S228P, lambda, V domains shown)
VH: B1 VH with S32Y, Q34M, S57N
VL: B1 VL with S54N, S96N
notes: IgG4 S228P, lambda; parental light chain; also called 4A8 VH S32Y
B19: BKO-4A8 variant VH T33A (antibody, human IgG4 S228P, lambda, V domains shown)
VH: B1 VH with T33A, Q34M, S57N
VL: B1 VL with S54N, S96N
notes: IgG4 S228P, lambda; parental light chain; also called 4A8 VH T33A

Key:
[1] = target: T1, human CXCR2; experiment: flow cytometry, CXCR2-transfected Expi293F cells
Method: (§1) Harvested cells were resuspended in FACS buffer (1×PBS+0.5% (w/v) bovine serum albumin (BSA)+2 mM EDTA pH 7.2). Approximately 2×10⁵ cells were added per well in a 96-well round-bottomed plate. Cells were pelleted by centrifugation at 400 g for 5 mins at 4° C. and supernatants discarded. 25 μL of each test antibody or control antibody was added to the cells and incubated for 30 minutes at 4° C. Cells were washed twice in 100 μL FACS buffer followed by centrifugation at 400 g for 5 mins at 4° C.
(§2) For detection, 50 μL of secondary antibody (Table 2) was added to relevant samples. Commercially available antibodies that bound to transfected CXCR family members were used as positive controls to ensure that the cells were expressing the receptors. Cells were washed twice in 200 μL of FACS buffer followed by centrifugation at 400 g for 5 mins at 4° C. Before sample acquisition, cells were resuspended in 100 μL of FACS buffer. Samples were acquired using the high throughput sampler on a FACSCanto™ II cytometer (Beckton-Dickinson).
Each heavy chain was co-expressed with each light chain to produce a sequence optimized antibody variant. Antibodies were purified and tested for CXCR2 binding activity as described in General Methods.

[2] = target: T1, human CXCR2; experiment: flow cytometry, CXCR2-transfected Expi293F cells; remark: listed apart in the source
Method: as §1, §2
Each variant heavy chain was co-expressed with the parental light chain and vice versa.

| Binder | EC50 [1] | Fold Improvement over 4A8 WT [1] | Fold change in binding relative to BKO-4A8 [2] |
| --- | --- | --- | --- |
| B1 | 300 pM | 1.33 fold | – |
| B2 | 300 pM | 1.33 fold | – |
| B3 | 400 pM | 1.25 fold | – |
| B4 | 300 pM | 1.67 fold | – |
| B5 | 100 pM | 4 fold | – |
| B6 | – | – | 1.18 fold |
| B7 | – | – | 1 fold |
| B8 | – | – | 1 fold |
| B9 | – | – | 1.8 fold |
| B10 | – | – | 1.6 fold |
| B11 | – | – | 1.17 fold |
| B12 | – | – | 0.64 fold |
| B13 | – | – | 1 fold |
| B14 | – | – | 0.86 fold |
| B15 | – | – | 1.33 fold |
| B16 | – | – | 1.71 fold |
| B17 | – | – | 0.83 fold |
| B18 | – | – | 1.33 fold |
| B19 | – | – | 1.3 fold |
